According to US10125358B2, “Methods and compounds for increasing threonyl-tRNA synthetase activity” (UNIVERSITY OF VERMONT AND STATE AGRICULTURAL COLLEGE, priority 2012, dated 2018):

Test system: tRNAThr
Assay: Steady state aminoacylation assay
Assay type: biochemical, E. coli or human
Conditions: purified recombinant protein
Description: Steady State Aminoacylation Assay—
The aminoacylation activities of the TARS constructs were determined using modifications to established procedures (Francklyn et al 2008). Briefly, reaction mixtures consisted of 20 mM Tris-HCl pH 8.0, 100 mM KCl, 10 mM MgCl2, 1 mM dithiothreitol, 2 mM ATP, 2.5 U pyrophosphatase (Roche), 80 μM threonine, 20 μM [14C]-threonine, and 5 μM of E. coli or human tRNAThr. Reactions were initiated with the addition of 0.25-0.75 μM TARS and run at 37° C. Aliquots were taken at varying time points and spotted onto Whatmann 3MM paper filters pre-soaked in 5% trichloroacetic acid (TCA). Upon completion, the filters were washed 3 times in excess TCA, once in 95% ethanol, and dried under a heating lamp. The formation of Thr-tRNAThr was detected by scintillation counter and the activity determined by linear regression of threonyl-tRNAThr formed per active site per unit time.

B1: TARS: N-terminal His6-tagged human threonyl-tRNA synthetase expressed and purified from E. coli; SEQ ID NO:2 (protein, listed as Homo sapiens)
chain: MFEEKASSPSGKMGGEEKPIGAGEEKQKEGGKKKNKEGSGDGGRAELNPWPEYIYTRLEMYNILKAEHDSILAEKAEKDSKPIKVTLPDGKQVDAESWKTTPYQIACGISQGLADNTVIAKVNNVVWDLDRPLEEDCTLELLKFEDEEAQAVYWHSSAHIMGEAMERVYGGCLCYGPPIENGFYYDMYLEEGGVSSNDFSSLEALCKKIIKEKQAFERLEVKKETLLAMFKYNKFKCRILNEKVNTPTTTVYRCGPLIDLCRGPHVRHTGKIKALKIHKNSSTYWEGKADMETLQRIYGISFPDPKMLKEWEKFQEEAKNRDHRKIGRDQELYFFHELSPGSCFFLPKGAYIYNALIEFIRSEYRKRGFQEVVTPNIFNSRLWMTSGHWQHYSENMFSFEVEKELFALKPMNCPGHCLMFDHRPRSWRELPLRLADFGVLHRNELSGALTGLTRVRRFQQDDAHIFCAMEQIEDEIKGCLDFLRTVYSVFGFSFKLNLSTRPEKFLGDIEVWDQAEKQLENSLNEFGEKWELNSGDGAFYGPKIDIQIKDAIGRYHQCATIQLDFQLPIRFNLTYVSHDGDDKKRPVIVHRAILGSVERMIAILTENYGGKWPFWLSPRQVMVVPVGPTCDEYAQKVRQQFHDAKFMADIDLDPGCTLNKKIRNAQLAQYNFILVVGEKEKISGTVNIRTRDNKVHGERTISETIERLQQLKEFRSKQAEEEF
modifications: N-terminal His6 tag
aminoacylation activity: exhibits aminoacyl synthetase activity
